# Experiment: soluble on expression in E. coli; label from the status in PepcDB or PDB records
row,Sequence,soluble on expression in E. coli
1,MGSDKIHHHHHHMKEIINLDEMIMLLKTIAESSRLRLLALLYHEDLTVSDFTLVLGQSQSHVLQHLHLLYEAQLVERYQKGRSIYFKLYYGRLGKDIVMAVVSALLEHNRVIAHDLARLKDIKKQYRKQEKKYFLQNVVQWDTLRLFSIADLGVENALREIVGDKPFETMLDISRDTGSVLKLFSGLYTYAVEVVLDSDILHLSVENTTFDLVILHWVLYFLESPEVALHEIAGVLRPHGRLLIVDFVRHEVESSHSYLSHMPFGFSDLQIEQWLKNVGLILEKIICFPPLQNENNERLMVKIWLARDPRLLVDDIKDKKVEFA,not soluble
2,MSILRIHAREIFDSRGNPTVEVDLYTAKGLFRAAVPSGASTGIYEALELRDNDKTRFMGKGVSQAVEHINKTIAPALVSKKVNVVEQEKIDKLMIEMDGTENKSKFGANAILGVSLAVCKAGAVEKGVPLYRHIADLAGNPEVILPVPAFNVINGGSHAGNKLAMQEFMILPVGASSFREAMRIGAEVYHNLKNVIKEKYGKDATNVGDEGGFAPNILENKEALELLKTAIAKAGYTDQVVIGMDVAASEFYRSGKYDLDFKSPDDPSRYITPDQLADLYKSFVQNYPVVSIEDPFDQDDWGAWQKFTASAGIQVVGDDLTVTNPKRIAKAASEKSCNCLLLKVNQIGSVTESLQACKLAQSNGWGVMVSHRSGETEDTFIADLVVGLCTGQIKTGAPCRSERLAKYNQILRIEEELGSKAKFAGRSFRNPLAK,soluble
3,MYVQLSQRLKDVATYVPKGAKLLDVGSDHAYLPIYLLEKGLITSAIAGEVVKGPYESALANVSASGFNDKIDVRLANGLAAFEPYDAVTTITICGMGGRLIADILDAGKDKLKDVDRLILQPNNREDDLRIWLMENGFTIVAEAIMTEN,not soluble
4,MSLKKQPLAYRMRPSNIDEVIGQQHLVGEGKIIRRMVDAGQLSSMILYGPPGVGKTSIAQAIAGSTDTHYKLLNAVVNNKKDMEIVVEEAKMSGQLILILDEVHRLDKGKQDFLLPHLEKGLLILIGATTANPFHSINPAIRSRCQIFELTPLTTDEIKVALTRALTDKTHGLGEEPVVISDEALAHFAFACGGDVRSALNGLELAVRSTQPNVKGEKEITLSVAEECIQRKSFHHDKDGDAHYDVLSAFQKSIRGSDVNAALHYLARLIEAGDLVSIGRRLLVIAYEDIGLANPQAGPRTLAAIEAAERLGFPEGRIPLANAVVELCLSPKSNSAYVALDAAIADIRKGHVGSVPAHLKDAHYKGAEQLGRGIGYKYPHDYERGWVKQQYLPDSLKSRAYYEPKRTGKFEDALADVYEKLRKSTFSEGHHHHHH,soluble
5,STHSELMEKFLTDYLNDLQGRNDDDASGTWDFYGSSVCEPDDESGYDVLANPPGPEDQDDDDDAYSDVFEFEFSETPLLPCYNIQVSVAQGPRNWLLLSDVLKKLKMSSRIFRCNFPNVEIVTIAEAEFYRQVSASLLFSCSKDLEAFNPESKELLDLVEFTNEIQTLLGSSVEWLHPSDLASDNYW,soluble
6,SSFQTSLPRLPVPAVKDTVSRYLESVRPLMKEGDFQRMTALAQDFAVNLGPKLQWYLKLKSWWATNYVSDWWEEYIYLRGRGPIMVNSNYYAMEMLYITPTHIQAARAGNTIHAILLYRRTVDREELKPIRLLGSTIPLCSAQWERLFNTSRIPGEETDTIQHVKDSRHIVVYHRGRYFKVWLYHDGRLLRPRELEQQMQQILDDTSEPQPGEAKLAALTAADRVPWAKCRQTYFARGKNKQSLDAVEKAAFFVTLDESEQGYREEDPEASIDSYAKSLLHGRCFDRWFDKSITFVVFKNSKIGINAEHSWADAPIVGHLWEYVMATDVFQLGYSEDGHCKGDKNPNIPKPTRLQWDIPGECQEVIETSLSSASFLANDVDLHSFPFDTFGKGLIKKCRTSPDAFIQLALQLAHYKDMGKFCLTYEASMTRLFREGRTETVRSCTTESCNFVLAMMDPTTTAEQRFKLFKIACEKHQHLYRLAMTGAGIDRHLFCLYVVSKYLAVDSPFLKEVLSEPWRLSTSQTPQQQVELFDFEKYPDYVSCGGGFGPVADDGYGVSYIIVGENFIHFHISSKFSSPETDSHRFGKHLRQAMMDIITLFGLTANSKK,soluble
7,IVKASTYMGKRRIGALISMERETGMTDYVETGIPMNANLTSELLINTFIPNTPLHDGAVIINNDTILAAACYLPLSENPFISKELGTRHRAALGVSEVTDCLTIVVSEETGHISLTKNGE,soluble
8,KLKPFNDEKTAKIAEEVQQFYESNATISLNEYLENVGELGYELYLTDGAEKSTYYGGAFRKKDLPDKTIKQVLDGETYHGIDSFDTGIFITGFFDNDVRNTIGVPVQADGKQLALFIRQDPEKQFGELRIF,soluble
9,SLVPRVMSTQHPDNARIPFFAASEVLNGEDEVREAYYVFSHFKCDEQMWDFEGKEADAHIVRKLLSSYYDFFSSRPLGKDFRLTMRVPNPEIEKGEAKLLAETLEMIPRSYDYVRSLGIEHPPIFEVILPMTRSAEEVMKVHAFYRDFVAGKGRFELLGEKVSDWLGDFLPEEIKVIPLFEDRDSLMRAAEISERYAEWAELDELRVFLARSDPAMNYGFVAATIYVKKALYDLSQLGISTYPILGVGSCPFRGGFSPKNLSVLDEFPSVYTFTVQSAFKYDYEFGDVRRAIKRAKEAARRKSDYVDEEHLQVAEKLKDGYRRRIAKIAEIVNRISSRIPRRRMRKLHVGLFGYSRGEEIKLPRAITFCASLYSIGLPSEIIGIAEMSDKDYEAVCEVFKNFDGMMESAMSLFNPESLKIVDLSMDFERAKELFGYEPDERHLEKTNEIIKQIDGDIKNLVVEAGILRGFLG,soluble
10,MTSKSVATPALDPAFQQLTAFASVHNFILVKGQADKQDLAGYNIPKLKELIVAYHNLYRSKHGAPPLVADPVMDVAAKRWADEMAKSGWISHEKPRKYGENVAMFCQSGCWPLPQTLAQAMVHLFYIEGIGYDYSSFKPELLKENGHFTQIVWKSSRKIGVGISIGKSSQPPYIPTMFHCVKFDPPGNVLAQQYYLSNVQRPTA,not soluble
11,MAHHHHHHMENKENLRNQQEFNQLCRILRLVEGDPGQVVKEPPNLGILIEVLQKMVKATFVKESSYQEAVDAREKWKSTDSTVETKNIMDKQRADDLVRYKITHEKLKKLLAKAKMLVSRIKEERYLAYVSRNAALEKMAKVVYGSSAEKMFRNETEFEKFLANSQGTIVGKTAKETCGMSNDKMKNVSFAGYSLVGDFFCLCVGENNNATLCDKSFSGPREEHKWTKVMFEDKLVDFAAGWFKIRGLCYVNATSGIKDVVTPENISTEIVAFNKMLGRQRDDVQIYRREAESYRQYILGRVEQVGFTDSAICTGEHQHMCVNYAQCLVSNKGIPWQLKLMEAEEDLEDVEKHNMEVHVLIGRLDKLIEKIKKAAEQLSQEMEGIDVAVEKVQLLEEEIEENETTGKSEATAGEFNDNAQPEEGSLDKCEYWGMFSILFGVVAFSLV,not soluble
12,MSLTIRDIAAKAGVSVSTASRALNNNPRISQATRERIQALAEAEGYLPNYNAKNLTAGESNAVGVVFATADRSQPENPFFIDILRGINAQLVQRDYVLSVAISKTADELLKNVKAMVAQGKIKRFVLLYAHQDDPIAAFLRQHHLRFVTIGQPDDNANDYFVDNDNLEAGIGGATFLLNQLQVKHPVFVESTHDWAYEQQRRQGYERVAATFNVEPLTCRLGELNRVRAFIKRHPEIDGIMATDDFNGIEFYRLMREQYGINHFPMVSFNQSLPNGLTDADLHSVNLFPEKMGSATVALLFSDKEPLETPTPGQIKIPFEIKEGHHHHHH,soluble
13,INLEDPRSFLGRELPGFAQFDTEILLAGQGTDYTNMPAESPPPSKVMEEEREANLAEIEKQQTQSDNAQKDPPKQTTGDKKVVFIYHTHNTESYLPLLKGETDPDMARHSKANVTLVGDMFGQALESQGIGATVNKTDIQSKLNKKGLNYARSYDESRPVVKDALASNKNLQYIIDIHRDSRRKKDTTATIKGKSYARVAFVVGKKSKNFEENYKIASELHKLMEKKYPGLSTGVFSKGSPGDNGVYNQDLTDRALLLEFGGVDNNLEELQRAANAAADVFSEMYWDAEKVNAASGE,not soluble
14,MIIGLLNQKGGVGKTTLSVNLAASFARTGARVLLIDVDPQGSALDWAAAREGAPLFPVVGLPRATVHKEITQIGHNYDHIIIDGPPRVTDLARSALMASDFVLIPVQPSPYDIWAADGIVKLIDEARVYKENLKSAFVINRKIVNTAIGRDVGEALGVYPVHVLSANVAQRVIFAEAATQGKTVYEVDKQGLAAAEIEAVAAEIKELAQLEHHHHHH,not soluble
15,ELASDVYNKRIWIKDMQADKGKVQLMKGLYWYFDKDPHLLLGGGTGGGKTFTILSLIYALCRVGEMEICDPKNSDLMALGKLPMFAGKVHTGKTDIVNCLKNAVELMNARFEMMNNSPDYKMGKNYAYYGLKPKFIVIDEFAAFKAELANDYSTDGEVDEYLTQLILKARQCGIFLIVAMQRPDG,not soluble
16,MGSDKIHHHHHHMLEELSENVWIAEGTCVSFHGFHGFHGFHGFHGFHGFQYPTRSVVVRLKSGAMWVWSPVKFDQDLADEIESLGTITHLVSPNKIHHLFLADWSSHVPTAKIWGPRSTVNKRRDLVFQPALDHLPPRDWAEDFEQFHVKGSLAMDEILFLHKQSNTLILADFSEHFSDQFLQRHWQPWQRRIGQFWGITEGRGFAPLDWRLSFLNRSHLRTLKQQLLDRQVDHVVMAHGEIARTDGHRFLQRSLAWI,not soluble
17,MGSDKIHHHHHHMNHLLKQAKRVASECECGHEHQWIEMDELQLGRNAINYLPEYLHEKGLLHVTIVADANTYAVAGQLVAQLLKGRGIDVENCILKEQGALTLLADEHGLGQLVIGAAKETDVFLAVGAGTIHDLTRIASYKFGKPFIAIPTAPSVDGFTSMGAPVIRDGVKITFQTQAPIALFADLDFLTQAPRSMVAAGFGDMLGKSTSLVDWQVSHMLNDEPFCPAVFHMTKSALTMCMEHADEIAACNEQGIRLLTEALIMSGLAMLIFGHSHPASGAEHHLSHYWEMAFLRSGGTQPLHGAKVGYATMLISALYKNEARKKIETFQGEGSPLVNSIHKHRERLLMLIDTIPESSDIQRLLESVGGAVKSADLALADSLEDEALEKAHKLRERCTLLYCLNEHLKTS,not soluble
18,MMFWDSEVAKRLLAQGALRPLDVQFARFIGKQAVLAGHNAAESELLSVLSAALSAELGRGHICLPLCDAQGNRCDLAALIGLYGEASLQHSERWLAVDWQALLQASPLVGQQGEAVPLMFDGSRLYLHRYWHYEKQLAARLTELAAPQRLSPAELANLRERLNTLFARDYLGLWQALQQKPLSSVERIQLLNDRLDVVESDALDWPAIEAVVEKAQRAADLQALEQLIPLTHCLNWQKVAAAVALTRRFAVISGGPGTGKTTTVTKLLAALISQSMAQGKVPEIKLIAPTGKAAARLTESMGKAVSQLAIEPEIAAAIPSSSSTIHRLLGAIPGSAEFRHHTRNPLHLDLLVVDEASMVDLPLMVKLVEALPKHARLILLGDKDQLASVEAGAVLGDICTFLNQGYGHEQGAQLAELTGFATLRQTASKTVNPVADCLCMLQKSYRFDARSGIGQLAKAINSGSPARVEAVWQQSFSDIEHFALSGEHYQQLLQTLVQAYRPYLSLLNQPTEQFESTQQSMLTLAKSALDAFSRCRLLCALREGDFGVMGLNTRIERALNAHKLIKTQEEIWYHGRPIMVTRNDHGLGLYNGDIGLCMRDRDDDQGRLKVYFELPDGSIKAVLPSRVPQHETAYAMTIHKSQGSEFDLTLLILPPDYSPILTRELVYTGITRAKKQLKLYCDNKVLQRAIKVKTQRASGLVARLEQ,not soluble

# Reference: the DeepSol protein solubility set
